{"source": "paper doi:10.1101/2021.04.08.21254942", "target": "TAMRA-labeled M9-NLS of hnRNPA2 WT peptide (human)", "experiment": "fluorescence polarisation"}
{"substance": "Karyopherin-β2 WT (from UniProt Q92973 1-898) (receptor)", "values": [{"measurement": "Kd", "value": 95, "unit": "nM"}]}
